The text below walks through data of publication PMC3220277 (Biochemistry, 2011).

Some targets named below: wild-type human S100A4 (human, UniProt P26447 1-101); C3R/C86S S100A4 (human, UniProt P26447 1-101, C3R | C86S); C81A S100A4 (human, UniProt P26447 1-101, C81A); C81S S100A4 (human, UniProt P26447 1-101, C81S).
Experiment in all cases: fluorescence polarisation
On the technique in general: Fluorescence polarisation rises when a labelled molecule tumbles more slowly, as on binding a larger partner.

Chain of C81A S100A4 (P26447 whole entry C81A, one chain of several): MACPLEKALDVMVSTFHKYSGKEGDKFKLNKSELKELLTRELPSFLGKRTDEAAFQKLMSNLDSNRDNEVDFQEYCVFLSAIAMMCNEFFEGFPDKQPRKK
Chain of C3R/C86S S100A4 (P26447 whole entry C3R/C86S, one chain of several): as the sequence (P26447 whole entry C81A, one chain of several) above, with C3R, A81C, C86S counted along it
Chain of wild-type human S100A4 (P26447 whole entry, one chain of several): as the sequence (P26447 whole entry C81A, one chain of several) above, with A81C counted along it
Chain of C81S S100A4 (P26447 whole entry C81S, one chain of several): as the sequence (P26447 whole entry C81A, one chain of several) above, with A81S counted along it

B1: FITC-Ahx-DAMNREVSSLKNKLRR-OH peptide (FITC-MIIA^1908−1923) (peptide)
peptide: DAMNREVSSLKNKLRR
HELM: PEPTIDE1{[O=C1OC2(c3ccc(O)cc3Oc3cc(O)ccc32)c2ccc(NC(=S)[*:2])cc21].[O=C(CCCCCN[*:1])[*:2]].D.A.M.N.R.E.V.S.S.L.K.N.K.L.R.R}$$$$V2.0
SMILES: CSCC[C@H](NC(=O)[C@H](C)NC(=O)[C@H](CC(=O)O)NC(=O)CCCCCNC(=S)Nc1ccc2c(c1)C(=O)OC21c2ccc(O)cc2Oc2cc(O)ccc21)C(=O)N[C@@H](CC(N)=O)C(=O)N[C@@H](CCCNC(=N)N)C(=O)N[C@@H](CCC(=O)O)C(=O)N[C@H](C(=O)N[C@@H](CO)C(=O)N[C@@H](CO)C(=O)N[C@@H](CC(C)C)C(=O)N[C@@H](CCCCN)C(=O)N[C@@H](CC(N)=O)C(=O)N[C@@H](CCCCN)C(=O)N[C@@H](CC(C)C)C(=O)N[C@@H](CCCNC(=N)N)C(=O)N[C@@H](CCCNC(=N)N)C(=O)O)C(C)C
As a reminder, the Kd is the constant that tells how readily two partners part at equilibrium. High values mean lower affinity, low ones higher affinity. In the case of B1, the Kd with wild-type human S100A4 is 2.3 ± 0.3 µM; with C3R/C86S S100A4 it was 1.4 ± 0.1 µM; with C81A S100A4, 46.6 ± 3.2 µM; in the assay with C81S S100A4 it was 128 ± 15.7 µM.
